One assay deals with Cdc20. In words: Avidin-bead pull-down of full-length Cdc20 made by IVT/T. Type of assay: binding, Saccharomyces cerevisiae. As to conditions: biotinylated form; Avidin beads; rabbit reticulocyte lysate; Western blot; n = 3. The method, then: To determine if Tyc1 could interact directly with the APC/C a pure N-terminal biotinylated form of Tyc1 was incubated with purified APC/C. […] Thus, like Mad2-binding motif peptides, unexpectedly Tyc1 protein binds to and inhibits APC/C when present in excess leading to a microtubule poison sensitivity phenotype in vivo.
Supplementary file pone.0198930.s008.tif: S8 Fig Tyc1 can pull-down recombinant Cdc20 synthesized by IVT/T. A) A Western blot displaying the detection of Cdc20 protein made by IVT/T (left), where the epitope tag is at the N-terminus of the ORF. The IVT/T reaction yields a series of protein products that display full-length and lower molecular weights, potentially the result of pre-mature translation termination. An Avidin-bead pull-down using a biotinylated-Tyc1 (Bio-Tyc1) is shown (right). […] B) An Avidin-bead pull-down using a biotinylated-Tyc1-mut1 (Bio-Tyc1-mut1) (middle) and biotinylated-Tyc1-mut2 (Bio-Tyc1-mut2) are shown (right). […] (TIF) Click here for additional data file.
(A western blot detects proteins with antibodies after separation by electrophoresis.)

In assay [1] the target is Anaphase Promoting-Complex/Cyclosome (APC/C) isolated through Cdc16-TAP and kept on IgG beads (S. cerevisiae | S. cerevisiae (endogenous in yeast)) (UniProt P09798).
Anaphase Promoting-Complex/Cyclosome (APC/C) isolated through Cdc16-TAP and kept on IgG beads (S. cerevisiae | S. cerevisiae (endogenous in yeast)), sequence (P09798 whole entry, looked up, one chain of several): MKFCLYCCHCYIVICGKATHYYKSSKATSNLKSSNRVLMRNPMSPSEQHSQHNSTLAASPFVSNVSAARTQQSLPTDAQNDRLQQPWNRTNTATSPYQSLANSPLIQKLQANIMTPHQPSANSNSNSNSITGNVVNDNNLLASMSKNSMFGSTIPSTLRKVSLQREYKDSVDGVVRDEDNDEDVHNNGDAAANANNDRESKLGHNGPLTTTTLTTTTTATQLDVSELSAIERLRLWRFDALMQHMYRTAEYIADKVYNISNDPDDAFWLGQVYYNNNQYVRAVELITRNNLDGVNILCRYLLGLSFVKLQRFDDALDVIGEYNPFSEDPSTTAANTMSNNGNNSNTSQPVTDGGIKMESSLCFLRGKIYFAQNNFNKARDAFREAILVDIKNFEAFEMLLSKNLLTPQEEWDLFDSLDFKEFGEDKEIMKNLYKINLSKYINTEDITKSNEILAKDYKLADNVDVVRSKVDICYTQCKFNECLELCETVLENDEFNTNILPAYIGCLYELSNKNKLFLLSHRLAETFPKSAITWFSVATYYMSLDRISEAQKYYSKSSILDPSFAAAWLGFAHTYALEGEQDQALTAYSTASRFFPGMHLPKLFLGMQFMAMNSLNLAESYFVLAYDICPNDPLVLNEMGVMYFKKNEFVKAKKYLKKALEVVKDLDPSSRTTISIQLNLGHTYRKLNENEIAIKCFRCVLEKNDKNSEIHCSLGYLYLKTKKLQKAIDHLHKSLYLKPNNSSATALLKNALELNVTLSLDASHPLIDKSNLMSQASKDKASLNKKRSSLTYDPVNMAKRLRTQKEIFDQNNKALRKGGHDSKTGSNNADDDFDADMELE
For assay [2] the target is unchanged. The source holds these as a separate data set.
Assay [3] deals with APC/C. In words: APC/C activity promoted by mutant Cdc20 alleles (Pds1 remaining). It is filed as biochemical, Saccharomyces cerevisiae. On the procedure: (§1) The production of Cdc20 or Cdh1 was prepared by IVT/T reactions, where 16 μL of rabbit reticulocyte lysate, 20 μM L-methionine, 0.4 μg of plasmid DNA, and a volume of nuclease-free ddH2O for a total volume of 20 μL. This freshly synthesized Cdc20 or Cdh1 protein was used directly in all APC/C assays after a 1-hour synthesis reaction at room temperature. The APC/C was purified for enzyme assays from 1 mL of TAP-tagged Cdc16 yeast extract (SCSY51) where extract was mixed with 50 μL 50:50 slurry magnetic beads (Invitrogen, Norway) for 2 hours at 4 °C. After incubation, the beads were washed with 3 mL APC/C wash buffer (200 mM of HEPES, 150 mM of NaCl and 10% (v/v) of glycerol). APC/C bound to IgG magnetic beads was used directly in the enzyme assays.
(§2) APC/C assays were performed by adding the reaction contents in following order: 4.3 μL of QAH buffer, 20 μL of rabbit reticulocyte lysate containing Cdc20 or Cdh1 with or without an additional volume of recombinant checkpoint protein(s) or inhibitor peptides, 2.4 μL ubiquitin aldehyde (Boston Biochem, USA), APC/C, 16 μL pre-charged E1/E2/ATP/ubiquitin mix, and 13.3 μL of ^35S-Pds1 with QAH buffer (20 mM HEPES at pH 8.0, 100 mM NaCl, and 1 mM MgCl2). The E1/E2/ATP/ubiquitin mix were pre-charged by mixing 1 μL of E1 (Boston Biochem, USA), 1 μL of E2 (Boston Biochem, USA), 14.4 μL of ATP, 14.4 μL of […] (Boston Biochem, USA), and 17.2 μL of QAH buffer and incubated for 15 minutes at room temperature. Approximately 15 μL of samples were taken out at each time point, and the reaction was stopped by the addition of 2x protein sample buffer (125 mM Tris-HCl pH 6.8, 4% SDS, 20% glycerol, and 0.002% bromophenol blue, with 10% (final v/v) 2-mercaptoethanol added in fresh directly before use).
For APC/C activity assays dried-gels were exposed on a phosphor screen cassette to detect radio-labeled protein. The phosphor screen was scanned by a Typhoon phosphor-imager (GE Healthcare Bio-Sciences, USA), and radio-labeled protein bands in gels were quantified by employing the ImageQuant software (GE Healthcare Bio-Sciences, USA) according to the manufacturer’s protocols. Data were expressed as mean ± standard deviation, and was analyzed using Student’s t-test. Graphs were created using Kaliedograph 4.0 (Synergy Software, USA) and estimates of best-fit curves of a 4-parameter Hill equation were generated to obtain estimates for the median inhibitory concentrations (IC50) and Hill coefficients (Hc) using IgorPro 6.01 (Wavemetrics, USA).
By sequence alignment and amino acid homology alone, the budding yeast KILR-motif may be defined as 201-RILQ-204 (Fig 1A). However, the next residue, Tyrosine Y205 had previously been isolated in a genetic screen for spindle checkpoint by-pass alleles of Cdc20 [21], indicating this Y205 residue may be a target of the spindle checkpoint inhibition, and thus might also be a functional KILR-motif residue that contributes to APC/C activation. To clarify this possibility, we took the initial step to characterize several of the previously isolated spindle checkpoint by-pass mutant alleles of Cdc20 [21], and also Cdc20 mutants in the two highly conserved residues within the Mad2-binding motif, the aspartic acid at D197 of unknown function and the highly conserved Leucine L203 within the KILR-motif based on sequence alignment and homology. […]

Assay [4] relates to APC/C. In words: APC/C activity promoted by mutant Cdc20 alleles in the presence of Mad2 (Pds1 remaining). It is filed as biochemical, Saccharomyces cerevisiae. As to conditions: 5.0 μM Mad2, n = 3. The method, then:
as §1, §2
For inhibitor titration and time-course experiments, recombinant Bub3, Mad2, Mad3, and the Mad3-Bub3 complex were expressed and purified as previously described. Inhibitory peptides were synthesized by standard procedures and purified to 99% purity by HPLC (Kelowna International Scientific Inc., Taiwan). For inhibition of APC/C the co-factor Cdc20 or Cdh1 was made fresh by IVT/T, and pure recombinant checkpoint proteins or inhibitor peptides were added to the IVT/T mixture and incubated for an additional hour at room temperature. In titrations, a dilution series of the checkpoint protein(s) were made before incubation with the Cdc20 co-factor. […]
Our first goal was to measure the ability of the mutant alleles to promote APC/C activity in vitro. To ensure any observed change in APC/C activity reflected a change in function, and not a change in the amount of Cdc20 co-factor protein produced by IVT/T, the amounts of Cdc20 protein produced by IVT/T was measured, and no significant difference was observed (S4 Table). […]

Assay [5] has as its target Anaphase Promoting-Complex/Cyclosome (APC/C) isolated through Cdc16-TAP and kept on IgG beads (S. cerevisiae | S. cerevisiae (endogenous in yeast)) (UniProt P09798). This is another data set of the same source.

Ends that are not written are not given here. * marks the point of attachment. Biotin = O=C1N[C@H]2[C@H](CS[C@H]2CCCCC(=O)*)N1 Some results are limits rather than exact numbers.

As for “Bio-Tyc1: biotinylated-Tyc1 (Biotin-MKVLDDWFSRKFSKAVHGNNHGTISLSTLSYIRVHKLVK)”, the “pull-down of full-length Cdc20 from IVT/T lysate (in words)” value in the assay on Cdc20 was “Both full-length and lower molecular weight forms of Cdc20 were observed”. In turn, “non-biotinylated Tiny Yeast Comet 1 (Tyc1) (natural protein)” gave an inhibition of APC/C^Cdc20 activity in vitro (35S-Pds1 substrate), titration of Tyc1; blocks the binding of co-factor Cdc20 to APC/C in assay [1] of 50 µM. For the molecule “non-biotinylated PQ65 (Cdc20 169–232) (from UniProt P26309 169-232) (peptide)”, in assay [2], the inhibition of APC/C^Cdc20 activity in vitro (35S-Pds1 substrate), serial dilution of PQ65; blocks the binding of co-factor Cdc20 to APC/C was less than 50 µM.

B1: Cdc20-127 (Y205N): spindle checkpoint by-pass mutant allele of Cdc20, Y205N (protein, UniProt P26309 1-610, looked up, variant Y205N)
APC/C activator protein CDC20: MPESSRDKGNAAISGNRSVLSIASPTKLNILSSDWSRNQGKVSKNSLKRSSSLNIRNSKRPSLQASANSIYSRPKITIGAPPLIRRDSSFFKDEFDAKKDKATFSAYSSRSYPTIGSESVVSQTSLSQPTTSREVDEQFTVAADRYIPILQGASQNKVDPETLHEALPPPNASPISHLRAQTKIVFKQNVAEACGLDMNKRILQNMPEPPKCSSLRQKSYIMKKRTHYSYQQEQKIPDLIKLRKINTNPERILDAPGFQDDFYLNLLSWSKKNVLAIALDTALYLWNATTGDVSLLTDFENTTICSVTWSDDDCHISIGKEDGNTEIWDVETMSLIRTMRSGLGVRIGSLSWLDTLIATGSRSGEIQINDVRIKQHIVSTWAEHTGEVCGLSYKSDGLQLASGGNDNTVMIWDTRTSLPQFSKKTHTAAVKALSWCPYSPNILASGGGQTDKHIHFWNSITGARVGSINTGSQVSSLHWGQSHTSTNGGMMNKEIVATGGNPENAISVYNYETKFKVAEVVHAHEARICCSQLSPDGTTLATVGGDENLKFYKIFDPRCTGRSREDGLMDGMLGLIGKEGCRTNDKENRSKNSSEIHTRRPSSTSQYLIR
In the case of B1, the “ability of mutant Cdc20 to promote APC/C activity (in words)” value is listed as “consistently displayed a decrease in APC activity” in the assay with APC/C [3] (vs wild type Cdc20, n = 3) and “displayed decreased APC/C activity” with APC/C [3] (vs wild type Cdc20, n = 3, listed as Cdc20-127). For the same molecule, the “ability of mutant Cdc20 to promote APC/C activity in the presence of Mad2 (in words)” value in the assay with APC/C [4] is listed as “consistently displayed APC activity in the presence of Mad2”; in the assay on APC/C [4] (listed as Cdc20-127), “promote APC/C activity at the same level as control reactions even in the presence of 5.0 μM Mad2”.

B2: non-biotinylated DQ36 (Cdc20 197–232) (peptide)
peptide: DMNKRILQYMPEPPKCSSLRQKSYIMKKRTHYSYQQ
modifications: not fully specified
The molecule B2 came in with an inhibition of APC/C^Cdc20 activity in vitro (35S-Pds1 substrate), titration of DQ36; blocks the binding of co-factor Cdc20 to APC/C in assay [5] of 150 µM.
